Reference: PMC5661634

Columns and labels:
[1] = biological target: mouse SNX5 PX domain (residues 20–180) (mouse) (UniProt Q9D8U8); assay: SPR; Biacore T100; PX5 immobilised on a CM5 chip, IncE 109-132 peptide flowed over (33 nM-2.7 uM); 25 °C; 20 mM Na HEPES pH 7.5, 200 mM NaCl, 0.005% Triton-X100; 1:1 fitting model
[2] = biological target: mouse SNX5 PX domain (residues 20–180) (mouse) (UniProt Q9D8U8); assay: SPR; Biacore T100; PX5 immobilised on a CM5 chip, GST-IncE 109-132 WT or mutants flowed over; 25 °C; 20 mM Na HEPES pH 7.5, 200 mM NaCl, 0.005% Triton-X100; 1:1 steady state analysis

UniProt Q9D8U8, sequence (Q9D8U8 20-180): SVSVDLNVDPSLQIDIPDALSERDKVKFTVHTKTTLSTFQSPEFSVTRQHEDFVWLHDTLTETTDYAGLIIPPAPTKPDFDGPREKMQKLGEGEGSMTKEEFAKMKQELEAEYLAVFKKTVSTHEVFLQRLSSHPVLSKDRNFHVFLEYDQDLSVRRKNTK

Substance	Kd [1] [nM]	Kd [2] [nM]
IncE^109–132 peptide	540	–
GST-IncE^109–132 V127A (domain or fragment)	–	980
GST-IncE^109–132 WT (domain or fragment)	–	390
GST-IncE^109–132 K118A (domain or fragment)	–	790
